Experiment [1] concerns the target T1, PDZ domain of the human MAST2 protein (MAST2-PDZ) (Homo sapiens, UniProt Q6P0Q8).
T1 sequence (Q6P0Q8 1101-1193 limits assumed): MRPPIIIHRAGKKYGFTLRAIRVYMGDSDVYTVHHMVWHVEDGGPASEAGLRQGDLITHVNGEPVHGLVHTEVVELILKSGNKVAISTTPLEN
The experiment can be described thus: Isothermal Titration Calorimetry (ITC) with MAST2-PDZ. Format: binding. The note with it: 298 K, 50 mM Tris-HCl, 150 mM NaCl, pH7.5, read-out: Kd (μM) (dissociation constant) MAST2-PDZ. (In general: In ITC the heat of successive injections is recorded.)

Experiment [2] addresses T2, PDZ domain of the human PTPN4 protein (PTPN4-PDZ) (Homo sapiens, UniProt P29074).
T2 construct: the PDZ domain of the human PTPN4 protein
T2 sequence (P29074 517-589 limits assumed): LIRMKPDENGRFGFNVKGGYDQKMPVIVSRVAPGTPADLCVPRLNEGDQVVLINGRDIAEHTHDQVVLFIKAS
In words: ITC with PTPN4-PDZ. The format is binding. The protocol:
The affinity of the polypeptides of the invention for the PDZ domain of the human PTPN4 protein is low, i.e., the constant of dissociation (KD) of the complex formed by the polypeptide of the invention with the PDZ domain of the human PTPN4 protein is high, in particular is more than 500 μM (for example as measured by ITC, in particular in the same conditions and with the same concentrations as for the MAST2-PDZ above).
ITC measurements were made using VP-ITC VP-ITC200 calorimeters (MicroCal). MAST2-PDZ was titrated at 298 K by injections of the polypeptides (25-45 consecutive aliquots of 5-7 μL at 6-min intervals). Raw data were normalized and corrected for heats of dilution of polypeptides. Equilibrium dissociation constants (KD) were determined performing nonlinear curve fitting of the corrected data to a model with one set of sites using the Origin7.0 software (OriginLab). All samples were prepared in a buffer containing 50 mM Tris-HCl, 150 mM NaCl, pH7.5. Data were recorded with MAST2-PDZ at an initial concentration of 30 μM and with peptide at initial concentrations ranging from 250 μM to 350 μM.

Regarding “ATT13: polypeptide ending with the MAST-2 binding domain […] (SEQ ID NO:235) (SWESHKSGGETRL; not fully specified)”, the equilibrium dissociation constant (Kd) in experiment [1] is 0.57 µM; in experiment [2], 160 µM.

In general, Kd refers to the free concentration of one partner at which half of the binding sites on the other are occupied at equilibrium, for simple one-to-one binding.

For the origin of these results see patent US10227653B2, “High MAST2-affinity polypeptides and uses thereof” (INSTITUT PASTEUR, priority 2011, dated 2019).
